A word on the Kd: it is the constant that tells how readily two partners part at equilibrium. A higher Kd goes with a looser complex.

One molecule from PMC10491584, “Structural convergence endows nuclear transport receptor Kap114p with a transcriptional repressor function toward TATA-binding protein” (Nature Communications, 2023) can be followed below.

Experiment [1] addresses T1, Kap114p wild type (S. cerevisiae, UniProt P53067 1-1004).
T1 construct: Kap114p (karyopherin-β), S. cerevisiae, full length, amplified from total genomic DNA; GST tag followed by a PreScission site (modified pGEX6p1); PreScission protease added during dialysis; also called Kap114p WT; GST-Kap114p (plasmid pGEX-6P-1-Kap114); source: E. coli Rosetta, purified (GST resin, MonoQ, Superdex 200)
T1 sequence (looked up): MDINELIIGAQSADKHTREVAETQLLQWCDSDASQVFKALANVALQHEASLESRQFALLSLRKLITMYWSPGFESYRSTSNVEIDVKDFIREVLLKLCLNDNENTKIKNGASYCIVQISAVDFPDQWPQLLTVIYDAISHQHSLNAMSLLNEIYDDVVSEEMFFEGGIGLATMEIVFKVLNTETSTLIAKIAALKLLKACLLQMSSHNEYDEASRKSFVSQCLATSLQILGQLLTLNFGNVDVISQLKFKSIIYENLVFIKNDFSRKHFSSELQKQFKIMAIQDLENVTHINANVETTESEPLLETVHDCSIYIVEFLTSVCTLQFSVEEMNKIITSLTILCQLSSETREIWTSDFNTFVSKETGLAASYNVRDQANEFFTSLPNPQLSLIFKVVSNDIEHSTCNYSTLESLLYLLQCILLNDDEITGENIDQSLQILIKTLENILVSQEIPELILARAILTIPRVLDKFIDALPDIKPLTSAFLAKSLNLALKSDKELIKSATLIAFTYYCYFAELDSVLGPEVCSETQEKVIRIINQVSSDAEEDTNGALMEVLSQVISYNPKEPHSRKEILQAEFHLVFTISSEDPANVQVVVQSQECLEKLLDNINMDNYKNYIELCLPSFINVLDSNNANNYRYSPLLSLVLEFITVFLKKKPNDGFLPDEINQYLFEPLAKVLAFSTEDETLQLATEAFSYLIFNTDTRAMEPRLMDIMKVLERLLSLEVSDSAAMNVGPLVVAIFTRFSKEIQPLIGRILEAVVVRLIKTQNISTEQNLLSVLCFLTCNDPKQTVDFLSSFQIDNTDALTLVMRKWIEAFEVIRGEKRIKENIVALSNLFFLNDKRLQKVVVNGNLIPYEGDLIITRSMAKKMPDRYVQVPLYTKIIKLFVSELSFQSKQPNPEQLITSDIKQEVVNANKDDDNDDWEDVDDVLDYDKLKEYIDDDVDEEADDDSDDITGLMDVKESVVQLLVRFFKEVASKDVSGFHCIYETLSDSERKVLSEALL
In words: ITC; MicroCal iTC200, 25 °C, 20 mM HEPES pH 7.4, 150 mM NaCl; low concentration: 25 µM wild type or mutant Kap114p in the sample cell, 250 µM wild type or mutant yTBPC in the syringe; triplicate. The settings on record: both partners purified. In general terms: ITC needs no label: the signal is the heat of the interaction.

Experiment [2] concerns the target T2, Kap114pΔ(848-875) (S. cerevisiae, UniProt P53067 1-1004, Δ848-875).
T2 construct: this construct is not in the list of mutants of the cloning methods; also called Δ(a.a.848-875); GST-Kap114p (Δ848-875); source: E. coli Rosetta, purified (GST resin, MonoQ, Superdex 200)
T2 sequence (looked up): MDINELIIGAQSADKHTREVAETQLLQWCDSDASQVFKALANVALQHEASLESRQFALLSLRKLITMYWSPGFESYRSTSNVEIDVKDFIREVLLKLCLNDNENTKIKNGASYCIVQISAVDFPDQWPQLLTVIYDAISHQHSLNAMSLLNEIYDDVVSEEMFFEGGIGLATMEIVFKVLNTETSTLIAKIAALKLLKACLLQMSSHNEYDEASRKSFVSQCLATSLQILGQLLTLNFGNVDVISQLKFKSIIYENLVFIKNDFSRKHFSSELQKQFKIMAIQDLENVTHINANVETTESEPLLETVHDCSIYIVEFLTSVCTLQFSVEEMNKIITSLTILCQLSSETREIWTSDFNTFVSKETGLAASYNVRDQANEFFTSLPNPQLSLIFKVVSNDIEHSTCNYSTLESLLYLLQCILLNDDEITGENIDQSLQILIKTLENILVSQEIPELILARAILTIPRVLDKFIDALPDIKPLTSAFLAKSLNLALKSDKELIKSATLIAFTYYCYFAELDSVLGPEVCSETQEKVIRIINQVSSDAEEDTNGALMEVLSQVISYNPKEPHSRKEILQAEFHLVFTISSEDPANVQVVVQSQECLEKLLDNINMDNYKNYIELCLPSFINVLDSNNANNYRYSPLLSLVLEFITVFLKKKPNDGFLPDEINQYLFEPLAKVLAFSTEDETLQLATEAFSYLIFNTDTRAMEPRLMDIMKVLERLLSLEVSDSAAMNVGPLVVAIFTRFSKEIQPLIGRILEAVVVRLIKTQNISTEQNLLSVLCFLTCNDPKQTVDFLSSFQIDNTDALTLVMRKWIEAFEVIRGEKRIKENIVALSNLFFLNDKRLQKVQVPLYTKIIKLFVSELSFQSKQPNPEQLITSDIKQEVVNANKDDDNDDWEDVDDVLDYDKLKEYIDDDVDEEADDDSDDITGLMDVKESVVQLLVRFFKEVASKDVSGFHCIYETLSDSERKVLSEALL
In words: ITC; MicroCal iTC200, 25 °C, 20 mM HEPES pH 7.4, 150 mM NaCl; high concentration: 50 µM wild type or mutant Kap114p in the sample cell, 500 µM wild type or mutant yTBPC in the syringe; triplicate. As to conditions: both partners purified.

B1: yTBP^C wild type (core domain of yeast TATA-box binding protein, a.a. 61-240) (domain or fragment, S. cerevisiae, UniProt P13393 61-240, looked up)
chain: SGIVPTLQNIVATVTLGCRLDLKTVALHARNAEYNPKRFAAVIMRIREPKTTALIFASGKMVVTGAKSEDDSKLASRKYARIIQKIGFAAKFTDFKIQNIVGSCDVKFPIRLEGLAFSHGTFSSYEPELFPGLIYRMVKPKIVLLIFVSGKIVLTGAKQREEIYQAFEAIYPVLSEFRKM
notes: modified pET28a, 6xHis tag followed by a PreScission site; also called yTBPC WT; His-yTBP (61-240); source: E. coli Rosetta, purified (Ni-NTA, HiTrap SP, Superdex 75); not shown: His6, N-terminal, cleaved
For B1, the figures for the dissociation constant Kd in experiment [1] and in experiment [2] were 1.4 nM and 1.7 nM, respectively.
